# Results: patent US20110263827A1 (AbbVie / Abbott, published 2011)
# B1: DVD325 (bispecific antibody)
# VH: QVQLQESGPGLVKPSQTLSLTCTVSGYSISSDFAWNWIRQPPGKGLEWMGYISYSGNTRYQPSLKSRITISRDTSKNQFFLKLNSVTAADTATYYCVTAGRGFPYWGQGTLVTVSSASTKGPEVQLVQSGGGLVKPGGSLRLSCAASGFTFSSYAMHWVRQAPGKGLEWVAVISYDGSNKYYADSVKGRFTISRDNSKNTLYLQMNSLRAEDTAVYYCARFSGWPNNYYYYGMDVWGQGTTVTVSS
# VL: DIQMTQSPSSMSVSVGDRVTITCHSSQDINSNIGWLQQKPGKSFKGLIYHGTNLDDGVPSRFSGSGSGTDYTLTISSLQPEDFATYYCVQYAQFPWTFGGGTKLEIKRTVAAPDVVMTQSPLSLPVTPGEPASISCRSSQSLLHSNGFNYVDWYLQKPGQSPHLLIYFGSYRASGVPDRFSGSGSGTDFTLKISRVEAEDVGVYYCMQALQTPPWTFGQGTKVEIRR
# notes: DVD-Ig; HC S, LC S; variable parts only
# B2: DVD767 (bispecific antibody)
# VH: QVQLQESGPGLVKPSQTLSLTCTVSGYSISSDFAWNWIRQPPGKGLEWMGYISYSGNTRYQPSLKSRITISRDTSKNQFFLKLNSVTAADTATYYCVTAGRGFPYWGQGTLVTVSSASTKGPSVFPLAPEVQLVQSGGGLVKPGGSLRLSCAASGFTFSSYAMHWVRQAPGKGLEWVAVISYDGSNKYYADSVKGRFTISRDNSKNTLYLQMNSLRAEDTAVYYCARFSGWPNNYYYYGMDVWGQGTTVTVSS
# VL: DIQMTQSPSSMSVSVGDRVTITCHSSQDINSNIGWLQQKPGKSFKGLIYHGTNLDDGVPSRFSGSGSGTDYTLTISSLQPEDFATYYCVQYAQFPWTFGGGTKLEIKRTVAAPSVFIFPPDVVMTQSPLSLPVTPGEPASISCRSSQSLLHSNGFNYVDWYLQKPGQSPHLLIYFGSYRASGVPDRFSGSGSGTDFTLKISRVEAEDVGVYYCMQALQTPPWTFGQGTKVEIRR
# notes: DVD-Ig; HC L, LC L; variable parts only
# B3: DVD797 (bispecific antibody)
# VH: QVQLQESGPGLVKPSQTLSLTCTVSGYSISSDFAWNWIRQPPGKGLEWMGYISYSGNTRYQPSLKSRITISRDTSKNQFFLKLNSVTAADTATYYCVTAGRGFPYWGQGTLVTVSSASTKGPSVFPLAPEVQLVQSGGGLVKPGGSLRLSCAASGFTFSSYAMHWVRQAPGKGLEWVAVISYDGSNKYYADSVKGRFTISRDNSKNTLYLQMNSLRAEDTAVYYCARFSGWPNNYYYYGMDVWGQGTTVTVSS
# VL: DIQMTQSPSSMSVSVGDRVTITCHSSQDINSNIGWLQQKPGKSFKGLIYHGTNLDDGVPSRFSGSGSGTDYTLTISSLQPEDFATYYCVQYAQFPWTFGGGTKLEIKRTVAAPDVVMTQSPLSLPVTPGEPASISCRSSQSLLHSNGFNYVDWYLQKPGQSPHLLIYFGSYRASGVPDRFSGSGSGTDFTLKISRVEAEDVGVYYCMQALQTPPWTFGQGTKVEIRR
# notes: DVD-Ig; HC L, LC S; variable parts only
# B4: DVD827 (bispecific antibody)
# VH: QVQLQESGPGLVKPSQTLSLTCTVSGYSISSDFAWNWIRQPPGKGLEWMGYISYSGNTRYQPSLKSRITISRDTSKNQFFLKLNSVTAADTATYYCVTAGRGFPYWGQGTLVTVSSASTKGPEVQLVQSGGGLVKPGGSLRLSCAASGFTFSSYAMHWVRQAPGKGLEWVAVISYDGSNKYYADSVKGRFTISRDNSKNTLYLQMNSLRAEDTAVYYCARFSGWPNNYYYYGMDVWGQGTTVTVSS
# VL: DIQMTQSPSSMSVSVGDRVTITCHSSQDINSNIGWLQQKPGKSFKGLIYHGTNLDDGVPSRFSGSGSGTDYTLTISSLQPEDFATYYCVQYAQFPWTFGGGTKLEIKRTVAAPSVFIFPPDVVMTQSPLSLPVTPGEPASISCRSSQSLLHSNGFNYVDWYLQKPGQSPHLLIYFGSYRASGVPDRFSGSGSGTDFTLKISRVEAEDVGVYYCMQALQTPPWTFGQGTKVEIRR
# notes: DVD-Ig; HC S, LC L; variable parts only
# B5: DVD840 (bispecific antibody)
# VH: EVQLVESGGGLVQPGGSLRLSCAASGYTFTNYGMNWVRQAPGKGLEWVGWINTYTGEPTYAADFKRRFTFSLDTSKSTAYLQMNSLRAEDTAVYYCAKYPHYYGSSHWYFDVWGQGTLVTVSSASTKGPQVQLQESGPGLVKPSQTLSLTCTVSGYSISSDFAWNWIRQPPGKGLEWMGYISYSGNTRYQPSLKSRITISRDTSKNQFFLKLNSVTAADTATYYCVTAGRGFPYWGQGTLVTVSS
# VL: DIQMTQSPSSLSASVGDRVTITCSASQDISNYLNWYQQKPGKAPKVLIYFTSSLHSGVPSRFSGSGSGTDFTLTISSLQPEDFATYYCQQYSTVPWTFGQGTKVEIKRTVAAPSVFIFPPDIQMTQSPSSMSVSVGDRVTITCHSSQDINSNIGWLQQKPGKSFKGLIYHGTNLDDGVPSRFSGSGSGTDYTLTISSLQPEDFATYYCVQYAQFPWTFGGGTKLEIKR
# notes: as for B4
# B6: DVD338 (bispecific antibody)
# VH: EVQLVESGGGLVQPGGSLRLSCAASGYTFTNYGMNWVRQAPGKGLEWVGWINTYTGEPTYAADFKRRFTFSLDTSKSTAYLQMNSLRAEDTAVYYCAKYPHYYGSSHWYFDVWGQGTLVTVSSASTKGPQVQLQESGPGLVKPSQTLSLTCTVSGYSISSDFAWNWIRQPPGKGLEWMGYISYSGNTRYQPSLKSRITISRDTSKNQFFLKLNSVTAADTATYYCVTAGRGFPYWGQGTLVTVSS
# VL: DIQMTQSPSSLSASVGDRVTITCSASQDISNYLNWYQQKPGKAPKVLIYFTSSLHSGVPSRFSGSGSGTDFTLTISSLQPEDFATYYCQQYSTVPWTFGQGTKVEIKRTVAAPDIQMTQSPSSMSVSVGDRVTITCHSSQDINSNIGWLQQKPGKSFKGLIYHGTNLDDGVPSRFSGSGSGTDYTLTISSLQPEDFATYYCVQYAQFPWTFGGGTKLEIKR
# notes: as for B1
# B7: DVD852 (bispecific antibody)
# VH: EVQLVESGGGLVQPGGSLRLSCAASGFTINASWIHWVRQAPGKGLEWVGAIYPYSGYTNYADSVKGRFTISADTSKNTAYLQMNSLRAEDTAVYYCARWGHSTSPWAMDYWGQGTLVTVSSASTKGPQVQLQESGPGLVKPSQTLSLTCTVSGYSISSDFAWNWIRQPPGKGLEWMGYISYSGNTRYQPSLKSRITISRDTSKNQFFLKLNSVTAADTATYYCVTAGRGFPYWGQGTLVTVSS
# VL: DIQMTQSPSSLSASVGDRVTITCRASQVIRRSLAWYQQKPGKAPKLLIYAASNLASGVPSRFSGSGSGTDFTLTISSLQPEDFATYYCQQSNTSPLTFGQGTKVEIKRTVAAPSVFIFPPDIQMTQSPSSMSVSVGDRVTITCHSSQDINSNIGWLQQKPGKSFKGLIYHGTNLDDGVPSRFSGSGSGTDYTLTISSLQPEDFATYYCVQYAQFPWTFGGGTKLEIKR
# notes: as for B4
# B8: DVD760 (bispecific antibody)
# VH: EVQLVESGGGLVQPGGSLRLSCAASGFTINASWIHWVRQAPGKGLEWVGAIYPYSGYTNYADSVKGRFTISADTSKNTAYLQMNSLRAEDTAVYYCARWGHSTSPWAMDYWGQGTLVTVSSASTKGPQVQLQESGPGLVKPSQTLSLTCTVSGYSISSDFAWNWIRQPPGKGLEWMGYISYSGNTRYQPSLKSRITISRDTSKNQFFLKLNSVTAADTATYYCVTAGRGFPYWGQGTLVTVSS
# VL: DIQMTQSPSSLSASVGDRVTITCRASQVIRRSLAWYQQKPGKAPKLLIYAASNLASGVPSRFSGSGSGTDFTLTISSLQPEDFATYYCQQSNTSPLTFGQGTKVEIKRTVAAPDIQMTQSPSSMSVSVGDRVTITCHSSQDINSNIGWLQQKPGKSFKGLIYHGTNLDDGVPSRFSGSGSGTDYTLTISSLQPEDFATYYCVQYAQFPWTFGGGTKLEIKR
# notes: as for B1
# B9: DVD768 (bispecific antibody)
# VH: EVQLVQSGGGLVKPGGSLRLSCAASGFTFSSYAMHWVRQAPGKGLEWVAVISYDGSNKYYADSVKGRFTISRDNSKNTLYLQMNSLRAEDTAVYYCARFSGWPNNYYYYGMDVWGQGTTVTVSSASTKGPSVFPLAPQVQLQESGPGLVKPSQTLSLTCTVSGYSISSDFAWNWIRQPPGKGLEWMGYISYSGNTRYQPSLKSRITISRDTSKNQFFLKLNSVTAADTATYYCVTAGRGFPYWGQGTLVTVSS
# VL: DVVMTQSPLSLPVTPGEPASISCRSSQSLLHSNGFNYVDWYLQKPGQSPHLLIYFGSYRASGVPDRFSGSGSGTDFTLKISRVEAEDVGVYYCMQALQTPPWTFGQGTKVEIRRTVAAPSVFIFPPDIQMTQSPSSMSVSVGDRVTITCHSSQDINSNIGWLQQKPGKSFKGLIYHGTNLDDGVPSRFSGSGSGTDYTLTISSLQPEDFATYYCVQYAQFPWTFGGGTKLEIKR
# notes: as for B2
# B10: DVD850 (bispecific antibody)
# VH: EVQLVESGGGLVQPGGSLRLSCAASGFTISDYWIHWVRQAPGKGLEWVAGITPAGGYTYYADSVKGRFTISADTSKNTAYLQMNSLRAEDTAVYYCARFVFFLPYAMDYWGQGTLVTVSSASTKGPQVQLQESGPGLVKPSQTLSLTCTVSGYSISSDFAWNWIRQPPGKGLEWMGYISYSGNTRYQPSLKSRITISRDTSKNQFFLKLNSVTAADTATYYCVTAGRGFPYWGQGTLVTVSS
# VL: DIQMTQSPSSLSASVGDRVTITCRASQDVSTAVAWYQQKPGKAPKLLIYSASFLYSGVPSRFSGSGSGTDFTLTISSLQPEDFATYYCQQSYTTPPTFGQGTKVEIKRTVAAPSVFIFPPDIQMTQSPSSMSVSVGDRVTITCHSSQDINSNIGWLQQKPGKSFKGLIYHGTNLDDGVPSRFSGSGSGTDYTLTISSLQPEDFATYYCVQYAQFPWTFGGGTKLEIKR
# notes: as for B4
# B11: DVD758 (bispecific antibody)
# VH: EVQLVESGGGLVQPGGSLRLSCAASGFTISDYWIHWVRQAPGKGLEWVAGITPAGGYTYYADSVKGRFTISADTSKNTAYLQMNSLRAEDTAVYYCARFVFFLPYAMDYWGQGTLVTVSSASTKGPQVQLQESGPGLVKPSQTLSLTCTVSGYSISSDFAWNWIRQPPGKGLEWMGYISYSGNTRYQPSLKSRITISRDTSKNQFFLKLNSVTAADTATYYCVTAGRGFPYWGQGTLVTVSS
# VL: DIQMTQSPSSLSASVGDRVTITCRASQDVSTAVAWYQQKPGKAPKLLIYSASFLYSGVPSRFSGSGSGTDFTLTISSLQPEDFATYYCQQSYTTPPTFGQGTKVEIKRTVAAPDIQMTQSPSSMSVSVGDRVTITCHSSQDINSNIGWLQQKPGKSFKGLIYHGTNLDDGVPSRFSGSGSGTDYTLTISSLQPEDFATYYCVQYAQFPWTFGGGTKLEIKR
# notes: as for B1
# Assays:
# [1] = molecular target: T1, EGFR (UniProt P00533 25-645, limits assumed, biotinylated); experiment: direct bind ELISA, N-term VD;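 note: antibody or DVD-Ig preparations bound to immobilized target antigen on ELISA plates, 1 h at room temperature, TMB detection read as absorbance at 450 nm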
# T1 construct: ELISA antigen; construct not described
# [2] = molecular target: T2, RON (UniProt Q04912 25-571, biotinylated); experiment: direct bind ELISA, C-term VD;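 note: ELISA with antibody or DVD-Ig preparations applied to target antigen-coated plates for 1 h at room temperature, TMB colour development, absorbance read at 450 nm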
# [3] = molecular target: T3, VEGF (UniProt P15692-4 27-191, limits assumed, biotinylated); experiment: direct bind ELISA, N-term VD;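 note: antibody or DVD-Ig preparations bound to immobilized target antigen on ELISA plates, 1 h at room temperature, TMB detection read as absorbance at 450 nm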
# T3 construct: ELISA antigen
# [4] = molecular target: T1, EGFR; experiment: direct bind ELISA, C-term VD;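 note: ELISA with antibody or DVD-Ig preparations applied to target antigen-coated plates for 1 h at room temperature, TMB colour development, absorbance read at 450 nm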
# [5] = molecular target: T2, RON; experiment: direct bind ELISA, N-term VD;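 note: antibody or DVD-Ig preparations bound to immobilized target antigen on ELISA plates, 1 h at room temperature, TMB detection read as absorbance at 450 nm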
Binder,EC50 [1],EC50 [2],EC50 [3],EC50 [4],EC50 [5]
B1,5.96 nM,25 nM,,,
B2,5.97 nM,0.64 nM,,,
B3,4.56 nM,1.16 nM,,,
B4,6.28 nM,6.57 nM,,,
B5,,,0.18 nM,69.8 nM,
B6,,,0.24 nM,206 nM,
B7,,,0.78 nM,68.1 nM,
B8,,,0.77 nM,328 nM,
B9,,,,20.7 nM,0.18 nM
B10,,,10.2 nM,71.8 nM,
B11,,,5.37 nM,562 nM,
